Data published in US20190201542A1 (AbbVie / Abbott, published 2019).

T1: human DLL3 (human, UniProt Q9NYJ7 27-492, limits assumed)
T1 construct: also called hDLL3; DLL3 protein
T1 sequence: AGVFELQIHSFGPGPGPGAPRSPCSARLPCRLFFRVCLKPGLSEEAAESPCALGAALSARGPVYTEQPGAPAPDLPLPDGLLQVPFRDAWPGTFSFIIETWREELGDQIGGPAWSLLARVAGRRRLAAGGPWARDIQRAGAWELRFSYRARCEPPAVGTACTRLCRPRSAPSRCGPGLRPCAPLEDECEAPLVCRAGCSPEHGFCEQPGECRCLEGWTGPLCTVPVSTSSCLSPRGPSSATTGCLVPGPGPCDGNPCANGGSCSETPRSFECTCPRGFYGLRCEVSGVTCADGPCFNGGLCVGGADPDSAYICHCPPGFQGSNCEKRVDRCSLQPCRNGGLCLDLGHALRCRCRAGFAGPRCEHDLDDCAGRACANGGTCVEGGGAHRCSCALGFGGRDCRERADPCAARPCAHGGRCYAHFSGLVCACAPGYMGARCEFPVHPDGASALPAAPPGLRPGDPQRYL

B1: SC16.18 (antibody, V domains shown)
VH: EVKLEESGGGLVQPGESMKLSCAASGFTFSDAWMDWVRQSPEKGLEWVAEIRNKANNHATYYAESVKGKFTISRDDSKSRVYLQMNNLRAADTGIYYCTAYSNFAYWGQGTLVTVST
VL: DIQMTQTTSSLSASLGDRVTISCRASQNIINYLNWYQQKPDGTVKLLIYYTSRLHSGVPSRFSGSGSGTDYSLTISNLEPEDIATYYCQQYSERPYTFGGGTKLEIK
notes: murine mAb
B2: SC16.35 (antibody, V domains shown)
VH: DVQLQESGPGLVKPSQSLSLTCTVTGYSITSDYAWNWIRQFPGNKLEWMGYISYSGSTSYNPSLKSRISITRDTSKNQFFLQLNSVTTEDTATYYCARFYYGSSYAMDYWGQGTSVTVSS
VL: DIQMTQTTSSLSASLGDRVTISCRASQDISNYLNWYQQKPDGTVKLLIYYTSRLHSGVPSRFSGSGSGTDYSLTISNLEQEDIATYFCQQGNTLPYTFGGGTKLEIK
notes: murine mAb
B3: SC16.4 (antibody, V domains shown)
VH: QIQLVQSGPELKKPGETVKISCKASGYTFTDYSMHWVKQAPGKGLKWMGWINTETGEPGYADDFKGRFAFSLETSASTAYLQINNLKNEDTATYFCARYDGYAMDYWGQGTSVTVSS
VL: DIQMTQTTSSLSASLGDRVTISCRASQDISNYLNWYQQKPDGTVKLLIYYTSRLHSGVPSRFSGSGSGTDYSLTISNLELEDIATYFCQQGDMLPWTFGGGTKLEIK
notes: murine mAb
B4: SC16.41 (antibody, V domains shown)
VH: EVKLEESGGGLVQFGGSMKLSCAASGFTFSDAWMDWVRQSPEKGLEWVAEIRNKANNHATYYPESVKGRFTISRDDSKSRVYLQMNNLRAEDTGIYYCTGYSSFAYWGQGTLVTVSA
VL: DIQMTQTTSSLSASLGDRVTISCRASQDVINYLNWYQQKPDGTVKLLIYYTSRLHSGVPSRFSGSGSRTDYSLTISNLEPEDIATYYCQQYSERPYTFGGGTKLEIK
notes: murine mAb
B5: SC16.29 (antibody, V domains shown)
VH: QVQLQQSGAELARPGASVKLSCKASGYTFTDQYINWVKQRTGQGLEWIGEIYPGRGNTYYNEKFKGKATLTADKSSSTAYMQLSSLTSEDSAVYFCAREDGGYDDAWFAYWGQGTLVTVSA
VL: QIVLTQSPAIMSASPGEKVTITCSASSSVSYMHWFQQKPGTSPKLWIYTTSNLASGVPARFSGSGSGTSYSLTVSRMEAEDAATYYCQQRSLYPYTFGGGTKVEIK
notes: murine mAb
B6: SC16.19 (antibody, V domains shown)
VH: EVQLQQSGAELVRPGASVKLSCTASGFNIKDSLLHWVKQRPEKGLEWIGWIDPEDGETKYAPNFQDKATITTDSSSNTAYLQLISLTSVDTAIYYCAYGNYVRHFDYWGQGTTLTVSS
VL: DIQMTQSPSSLSASLGGKVTFTCKASQDIHKYVAWYQHKPGKGPRLLIHYTSTLQPGISSRFSGSGSGRDYSFSISNLEPEDIATYYCLQYNNLYTFGGGTKLEIK
notes: murine mAb
B7: SC16.21 (antibody, V domains shown)
VH: QVQLQQSGPELVKPGASVKISCKASGYAFSSSWMNWVKQRPGKGLEWIGRIYPGDGDTNYNGKFKGKATLTADKSSSTAYMQLSSLTSEDSAVYFCAMGIYNYDGSRYYSMDYWGQGTSVTVSS
VL: DIVMTQSPSSLAMSVGQKVTMSCKSSQSLLNSSNQKNYLAWYQQEPGQSPKLLVSFASTRESGVPDRFTGSGSGTDFTLTISGVQAEDLAVYYCQQHYSIPLTFGAGTKLELK
notes: murine mAb
B8: SC16.5 (antibody, V domains shown)
VH: QVTLKESGPGILQPSQTLSLTCSFSGFSLSTSGMGVGWIRQPSGEGLEWLADIWWDDNKYYNPSLKSRLTISKDTSSNQVFLKITSVDTADTATYYCARRVNYVYDPYYAMDYWGQGTSVTVSS
VL: QIVLTQSPAIMSASPGEKVTMTCSASSSVSYMHWYQQKSGTSPKRWIYDTSKLASGVPARFSGSGSGTSYSLTISSMEAEDAATYYCQQWTRNPLTFGAGTKLELK
notes: murine mAb
B9: SC16.25 (antibody, V domains shown)
VH: QVTLKESGPGILQPSQTLSLTCSFSGFSLSTSGMGVGWIRQPSGEGLEWLTDIWWDDNKYYNPSLKSRLTISKDTSSNQVFLNITSVDTADTATYYCARRVNYYYDPYYAMDYWGQGTSVTVSS
VL: QIVLTQSPAIMSASPGEKVTMTCSASSSVSYMHWYQQKSGTSPKRWIYDSSKLASGVPARFSGSGSGTSYSLTISSMEAEDAATYYCQQWSSNPLTFGAGTKLELK
notes: murine mAb
B10: SC16.3 (antibody, V domains shown)
VH: QVTLKESGPGILQPSQTLSLTCSFSGFSLSTSGMGVGWIRQPSGKGLEWLAHIWWDDVKRYNPALKSRLTISKDTSSSQVFLKIASVDTADTATYYCARIADYGGDYYAMDYWGQGTSVTVSS
VL: QIVLTQSPAIMSVSLGERVTMTCTASSSVSSSYLHWYQQKPGSSPKLWIYSTSNLASGVPARFSGSGSGTSYFFTISSMEAEDAATYYCHQYHRSPFTFGAGTKLKIR
notes: murine mAb
B11: SC16.30 (antibody, V domains shown)
VH: QVTLKESGPGILQPSQTLSLTCSFSGFSLSTSGMGVGWIRQPSGKGLEWLAHIWWDDVKRYKPALKSRLTVSKDTSSNQVFLKIATVDAADTGTYYCARIVDGHPPFAYWGQGTLVTVSA
VL: QIVLTQSPTIMSASLGERVTMTCTASSSVTSSYLHWYQQKPGSSPKLWIYSTSNLASGVPARFSGSGSGTSYSLTISSMEAEDAATYYCHQFHRSPFTFGSGTKLEIK
notes: murine mAb
B12: SC16.42 (antibody, V domains shown)
VH: QIQLVQSGPELKKPGETVKISCKASGYTFTTAGMQWVQKMPGKGFKWIGWINTHSGEPKYADDFKGRFAFSLETSASTAYLQISNLKDEDTATFFCAPLWSDSSFAYWGQGTLVTVSA
VL: DVLMTQSPLSLSVSLGDQASISCRSSQNIVHSDRYTYLEWYLQKPGQSPKLLIYGVSNRFSGVPDRFSGSGSGTDFTLKISRVEAEDMGVYYCFQGTHVPYTFGGGTKLEIK
notes: murine mAb
B13: SC16.22 (antibody, V domains shown)
VH: QVQLQQPGAELVKPGASVKLSCKASGYTFTTYWMHWVKQRPGQGLEWIGEIDPSDSYTYYNQKFKGKATLTVDKSSSTAYMQLSSLTSEDSAVYYCARGDYGNPYAMDYWGQGSSVTVSS
VL: DIQMTQTTSSLSASLGDRVTISCRASQDIKNYLNWYQQKPDGTVKPLIYYTSRVHSGVPSRFSGSGSGTDYSLTISNLEQEDIATYFCQQGYTLPFTFGSGTKLEIK
notes: murine mAb
B14: SC16.20 (antibody, V domains shown)
VH: QVQLQQSGTELVRPGTSVRVSCKASGYAFGNHLIEWVKQRPGQGLEWIGVINPGTGGTHYNEKFKDKARLTADKSSNTAYMHLNSLTSDDSAVYFCARSPYDYHEGAMDYWGQGTSVTVSS
VL: EIQMTQSPSSMSASLGDRITITCQATQDIVKNLNWYQQKPGKPPSFLIYYATELAEGVPSRFSGSGSGSDYSLTIRNLESEDFADHYCLQFYEFPFTFGAGTKLELK
notes: murine mAb
B15: SC16.38 (antibody, V domains shown)
VH: EVQLQQSGAELVKPGASVKLSCTVSGFNIKDTYIHWVKQRPEQGLEWIGRIDPANGNTKYDPKFQGKATITADTSSNTAYLQLSSLTSEDTAVYYCARPTGYFEYWGQGTTLTVSS
VL: QIVLTQSPAIMSASPGEKVTMTCSASSSINYMHWYQQKPGTSPKRWIYDTSKLASGVPARFSGSGSGTSYSLTISSMEAEDAATYYCHQRSTWTFGGGTKLEIK
notes: murine mAb

The binders below were run against T1, human DLL3 (assay: screen on immobilized hDLL3 or h293-hDLL3 cells).
Summary of the method: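 Solid-phase ELISA on DLL3-His (0.5 μg/ml coating), developed with HRP anti-mouse IgG and TMB and read at OD 450, was one screen for supernatants of single-cell hybridomas from human DLL3-immunized mice taken after 10 days in culture. Flow-cytometry binding counted as positive only above the control.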

Binding result, binds:
B1, B2, B3, B4, B5, B6, B7, B8, B9, B10, B11, B12, B13, B14, B15
